# According to US20210292393A1 (published 2021):
# Residue numbers refer to the chain shown, from its start.
# B1: antibody 543 (antibody, V domains shown)
# VH: EVQLVESGGGLVQPGRSLRLSCAASGFTFHDYAMHWVRQAPGKGLEWVSGISWNSGSIGYADSVKGRFTISRDNAKNSLYLQMNSLRAEDTALYYCAKDTFGSSSWYRGDSYYYYGMDVWGQGTTVTVSS
# VL: QSALTQPASVSGSPGQSITISCTGTSSDVGGYNYVSWYQQHPGKAPKLMIYEVSNRPSGVSNRFSGSKSGNTASLTISGLQAEDEADYYCSSYTSSSTQRYVVFGGGTKLTVL
# B2: antibody 560 (antibody, V domains shown)
# VH: EVQLVESGGGLVQPGGSLRLSCAASGFTISSNYMSWVRQAPGKGLEWVSVIYSGGSTYYADSVKGRFTISRDNSKNTLYLQMNSLRAEDTAVYYCAREEGEWEKDYYGMDVWGQGTTVTVSS
# VL: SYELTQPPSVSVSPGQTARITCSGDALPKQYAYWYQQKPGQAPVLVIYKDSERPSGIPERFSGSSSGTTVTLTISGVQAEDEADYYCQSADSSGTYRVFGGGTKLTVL
# B3: antibody 548 (antibody, V domains shown)
# VH: QVQLVESGGGVVQPGRSLRLSCAASGFTFSSYAMHWVRQAPGKGLEWVAVISYDGSNKYYADSVKGRFTISRDNSKNTLYLQMNNLRAEDTAVYYCAKSGSGSYLSAFDIWGQGTMVTVSS
# VL: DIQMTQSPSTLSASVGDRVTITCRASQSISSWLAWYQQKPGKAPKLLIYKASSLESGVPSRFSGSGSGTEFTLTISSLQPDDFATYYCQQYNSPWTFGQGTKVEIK
# B4: antibody 541 (antibody, V domains shown)
# VH: QVQLVQSGAEVKKPGASVKVSCKASGYTFTSYYVHWVRQAPGQSLEWMGVISPSTGSTTYAQNFQGRVTMTRDTSTTTVYMELSSLRSEDTAVYYCARDDYYDSTRYFDLWGRGTLVTVSS
# VL: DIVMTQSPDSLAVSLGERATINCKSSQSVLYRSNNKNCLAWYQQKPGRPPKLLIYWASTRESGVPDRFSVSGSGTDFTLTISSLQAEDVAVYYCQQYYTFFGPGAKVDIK
# B5: antibody 536 (antibody, V domains shown)
# VH: QVQLVESGGGVVQPGRSLRLSCAASGFTFSSYVMHWVRQAPGKGLEWVALISYDGSNKYYADSVKGRFTISRDNSKNTLYLQMNSLRAEDTAVYYCARGGHIRVGRYFDWLISYFDYWGQGTLVTVSS
# VL: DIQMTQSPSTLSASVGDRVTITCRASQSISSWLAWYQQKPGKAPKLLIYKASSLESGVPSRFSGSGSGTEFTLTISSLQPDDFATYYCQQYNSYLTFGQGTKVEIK
# B6: antibody 545 (antibody, V domains shown)
# VH: QVQLVQSGSELKKPGASVKVSCKASGYTFTSYAMNWVRQAPGQGLEWMGWINTNTGNPTYAQGFTGRFVFSLDTSVSTAYLQISVLKAEDTGVYYCARDHELPNSSSWFGHFEYWGQGTLVTVSS
# VL: SYELTQPPSVSVSPGQTARITCSGDALPKQYAYWYQQKAGQAPVLVIYKDSERRSGIPERFSGSSSGTTVTLTISGVQAEDEADYYCQSADSSGTSVVFGGGTKLTVL
# B7: antibody 533 (antibody, V domains shown)
# VH: GVQLVESGGVVVQPGGSLRLSCAASGFSFDDYTMHWVRQAPGKGLEWVSLVSWDGGTTYYTDSVKGRFTISRDNSKNSLYLQMNSLRTEDTALYFCAKDSGRIVPAATFDYWGQGTLVTVSS
# VL: DIQMTQSSSSLSASVGDRVTITCRASQDISNYLAWFQQKPGKAPKSLIYAASSLQSGVPSKFSGSGSGTDFTLTISSLQPEDFATYYCQQYYTYPLTFGGGTKVEIK
# B8: antibody 547 (antibody, V domains shown)
# VH: QVHLVESGGGVVQPGRSLRLSCAASGFALSSYAMHWVRQPPGKGLEWVALISYDGSVKKYADSVKGRITVSGDNSRNTLHLQINSLRADDTAVYYCVRGGVSGPNSFDLWGHGTMVTVSS
# VL: DVVLTQSPLSLPVTLGQPASISCRSSQSLEYSVGNTYVNWFQQRPGQSPRRLIYKVSNRDSGVPDRFSGSGSGTDFTLQISRVEADDVGIYYCMQGTHWPVTFGQGTKVEIK
# B9: antibody 537 (antibody, V domains shown)
# VH: QVQLQQWGAGLLKPSETLSLTCAVYGGSFSGYYWSWIRQPPGKGLEWIGEINHSGSTNYNPSLKSRVTISVDTSKNQFSLKLSSVTAADTAVYYCARGLYYDMGGGFDYWGQGTLVTVSS
# VL: not shown
# B10: antibody 556 (antibody, V domains shown)
# VH: QVQLVESGGGVVQPGRSLRLSCAASGFTFSSYAMHWVRQAPGKGLEWVAVISYDGSDKYYADSVKGRVTISRDNSKNTLYLQMNSLRVEDTAVFYCAKDDCSGGVCFPDYWGQGTLVTVSS
# VL: QSALTQPASVSGSPGQSITISCTGTSSDVGGYNYVSWYQQHPGKAPKLMIYEVSIRPSGVSNRFSGSKSGNTASLTISGLQAEDEAAYYCSSYTSSSTLVFGGGTKLTVL
# B11: antibody 546 (antibody, V domains shown)
# VH: QVQLVESGGGVVQPGRSLRLSCAASGFTFSSYGMHWVRQAPGKGLEWVAVIWYDGSNKYYADSVKGRFTISRDNSKNTLYLQMNSLRAEDTAVYYCARNCGGDCVAGDGFDYWGQGTLVTVSS
# VL: DIQMTQSPSSLSASVGDRVTITCRASQSISSYLNWYQQKPGKAPNLLIYAASSLQSGVPSRFSGSGSGTDFTLTISSLQPEDFATYYCQQSYSALTWTFGQGTKVEIK
# B12: anti-SARS-CoV-2 antibody 1000 (antibody, V domains shown)
# VH: EVQLVESGGGLVQPGRSLRLSCAASGFTFDDYAMHWVRQAPGEGLEWVSGISWNSGSIGYADSVKGRFTISRDNAKNSLYLQMNSLRAEDTALYYCAKDTRFSFGTIAAAVSGYGMDVWGQGTTVTVSS
# VL: QSALTQPASVSGSPGQSITISCTGTSSDVGIFNLVSWYQQHPGKAPKLMIYEVTKRPSGVSNRFSGSKSGNTASLTISGLQAEDEADYYCCSYAGSYVFGTGTKVTVL
# B13: anti-SARS-CoV-2 antibody 1012 (antibody, V domains shown)
# VH: EVQVVESGGGLVQPGGSRRLSCTASGFTLRNYWMSWVRQAPGKGLEWVANIKQDGSEKYYVDSVKGRFTISRDNAKNSLYLQMDSLRAEDTAVYYCARGGRYCPGGSCPRWGRGTLVTVSS
# VL: DIQMTQSPSSLSASVGDRVTITCQASQDISNFLNWYQLKPGEAPTLLIFDASKLETGVPSRFSGTGFGTDFTFTISSLQPEDTATYYCQQYDDLTSITLGQGTRLEIK
# B14: anti-SARS-CoV-2 antibody 989 (antibody, V domains shown)
# VH: QVQLQESGPGLVKPSQTLSLTCTVSGGSISSGSYYWSWIRQPAGKGLEWIGRIYTSGSTNYNPSLKSRVTMSVDTSKNHFSLKLRSVTAADTAVYYCARGIAVAGDDDYYYYYGLDVWGQGTTVTVSS
# VL: B6 VL with A39P, L45M, Y48N, R54P, Q88H, S96Y, V97W
# B15: anti-SARS-CoV-2 antibody 1009 (antibody, V domains shown)
# VH: QLQLQESGPGLVKPSQTLSLTCTVSGGSISSGSYYWSWIRQPAGKGLEWIGSIYTSGSTYYNPSLKSRVTISVDTSKNQFSLKLSSVTAADTAVYYCARKNWLQGSFDYWGQGTLVIVSS
# VL: NFMLTQPHSVSESPGKTVTISCTRSSGSIANNYVQWYQQRPGSAPTTVIYEDNQRPSGVPDRFSGSIDSSSNSASLTISGLKTEDEADYYCQSYDTSNHGVFGGGTKLTVL
# B16: anti-SARS-CoV-2 antibody 966 (antibody, V domains shown)
# VH: QVQLVESGGGVVQPGRSLRLSCAASEFTFSSYGMHWVRQAPGKGLEWVAVISHDGSNEYYADSVKGRFTISRDNSKNTLYLQMNSLRAEDTAVYYCAKWRGPHRGYYDRSGYYLGSSRDDYWGQGTLVTVSS
# VL: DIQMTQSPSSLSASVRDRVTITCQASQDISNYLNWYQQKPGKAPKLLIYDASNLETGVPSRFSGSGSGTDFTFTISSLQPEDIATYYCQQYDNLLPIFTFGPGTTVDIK
# B17: anti-SARS-CoV-2 antibody 933 (antibody, V domains shown)
# VH: QVQLVQSGAEVKKPGASVKVSCKASGYTFTTYDINWVRQATGQGLEWMGWMNPNSGYTDSAQKFQGRVTMTRNTSISTAYMELSSLRSEDTAVYYCASGRGVKTYYFDYWGQGTLVTVSS
# VL: SYELTQPPSVSVSPGQTASITCSGDKLGDKSACWYQQKPGQSPVLVICQDTKRPSGIPERFSGSNSGNTATLTISGTQAMDEADYYCQAWDSRTVVFGGGTKLTVL
# B18: anti-SARS-CoV-2 antibody 923 (antibody, V domains shown)
# VH: EVQLVESGGGVVRPGGSLRLSCAASGFIFDDYDMTWVRQAPGKGLEWVSGISWNGGNTGYADSVKGRFTISRDNAKNSLYLQMNSLRAEDTALYHCAVIMSPIPRYSGYDWAGGAFDIWGQGTMVTVSS
# VL: SSELTQDPAVSVALGQTVRITCQGDSLRSYYASWYQQKPGQVPILVIYDKNNRPSGIPDRFSGSSSGNTASLTITGAQAEDEADYYCNSRDSSGNAVVFGGGTKLTVL
# B19: anti-SARS-CoV-2 antibody 1037 (antibody, V domains shown)
# VH: QITLKESGPTLVKPTQTLTLTCTFSGFSLSTSGVGVGWIRQPPGKALEWLALIYWDDDKRYSPSLKSRLTITKDTSKNQVVLTMTNMDPVDTATYYCAHHTITRINDYWGQGTLVTVSS
# VL: QSALTQPASVSGSPGQSITISCTATSSDVGAYNYVSWYQQHPGKAPKLMIYDVSKRPSGVSNRFSGSKSGNTASLTISGLQAEDEADYYCSSYTSSSTVFGGGTKLTVL
# B20: anti-SARS-CoV-2 antibody 1027 (antibody, V domains shown)
# VH: EVQLVESGGGLVQPGGSLRLSCAASGFTVSSNYMSWVRQAPGKGLEWVSIIYSGGSTFYADSVKGRFTISRDSSKNTLYLQMSSLRAEDTAVYYCARDLDYYGMDVWGQGTTVTVSS
# VL: DIQLTQSPSFLSAPVGDRVTITCRASQGISSYLAWYQQKPGKAPKLLIYGASTLQSGVPSRFSGSGSGTEFTLTISSLQPEDFATYYCQQLNSYQRFTFGPGTKVEIK
# B21: anti-SARS-CoV-2 antibody 1075 (antibody, V domains shown)
# VH: QVQLVQSGAEVKKPGASVKVSCKVSGYTLIELSMHWVRQAPGKGLEWMGGFDPEDGETIYAQKFQGRVTMTEDTSTDTAYMELSSLRSEDTAVYYCATEWAYYGSGSYLGYWGQGTLVTVSS
# VL: EIVMTQSPATLSVSPGERATLSCRASQSVSSNLAWFQQKPGQAPRLLIYGASTRVTVIPARFSGSGSGTEFTLTISSLQSEDFAVYYCQQYNNWPRTFGQGTKVEIK
# B22: anti-SARS-CoV-2 antibody 1015 (antibody, V domains shown)
# VH: EVQLVESGGGLVQPGGSLRLSCAASGFTFSSYWMHWVRQAPGKGLVWVSHINSDGSSTSYADSVKGRFTISRDNAKNTLYLQMNSLRAEDTAVYYCARGLRYFDLDVWGQGTTVTVSS
# VL: QSVLTQPPSVSEAPRQRVTISCSGSSSNIGNNAVNWYQQLPGKAPKLLIFYDDLLPSGVSDRFSGSKSGTSASLAISGLQSEDEADYYCAAWDDSLNGGVFGGGTKLTVL
# B23: anti-SARS-CoV-2 antibody 1081 (antibody, V domains shown)
# VH: EVQLVQSGAEVKKPGESLKISCKRSGYSFTTYWIGWVRQMPGKGLEWMGSIYPGDSDTRYSPSFQGQVTISADKSISTAYLQWSSLKASDTAMYYCASQEVPGYYYYMDVWGKGTTVTVSS
# VL: B11 VL with N34H, N45K, S91T, A94T, L95H
# Molecular target: SARS-CoV-2 full length spike protein, V483A mutant (SARS-CoV-2, UniProt P0DTC2 14-1273)
row,Binder,median fold over isotype [fold over isotype]
1,B1,8.92
2,B2,14.8
3,B3,10.1
4,B4,1.6
5,B5,2.59
6,B6,14.3
7,B7,4.86
8,B8,11.4
9,B9,3.74
10,B10,7.35
11,B11,18.9

# Molecular target: SARS-CoV-2 spike protein with D614G mutation (SARS-CoV-2, UniProt P0DTC2 14-1208)
row,Binder,Kd [nM]
1,B12,0.016
2,B13,0.027
3,B14,0.039
4,B15,0.034
5,B16,1.3
6,B17,29
7,B18,0.022
8,B19,0.023
9,B20,0.043
10,B21,0.023
11,B22,0.02
12,B23,0.041
